Laboratory results reported in EP4748861A1 (Duality Biologics (Suzhou) Co., Ltd., dated 2025).

B1: DBXT001-01 (bispecific antibody, human IgG1, kappa)
heavy 1: not shown
light 1: not shown
heavy 2: not shown
light 2: DIQMTQSPSSLSASVGDRVTITCRASQDISNYLNWYQQKPGKAPKLLIYYTSILHSGVPSRFSGSGSGTDYTFTISSLQPEDIATYFCQQGDTLPPTFGGGTKLEIKSSASTKGPSVFPLAPSSKSTSGGTAALGCLVKDYFPEPVTVSWNSGALTSGVHTFPAVLQSSGLYSLSSVVTVPSSSLGTQTYICNVNHKPSNTKVDKKVEPKSC
notes: H1/L1 are the EGFR arm, H2/L2 the HER3 arm; one arm for each antigen; also called BsAb DBXT001-01; EGFR-HER3 BsAb
B2: anti-HER3 mAb (antibody, human IgG1, kappa, V domains shown)
VH: QVQLQESGPGLVKPSETLSLTCTVSGYSITSAYYWNWIRQPFGKGLEWMGYISYDGRNNFNPSLKNRVTISRDTSKNQFSLKLSSVTAADTAVYYCARDGDYDYFDYWGQGTTVTVSS
VL: DIQMTQSPSSLSASVGDRVTITCRASQDISNYLNWYQQKPGKAPKLLIYYTSILHSGVPSRFSGSGSGTDYTFTISSLQPEDIATYFCQQGDTLPPTFGGGTKLEIKR
notes: expressed in CHO cells; also called HER3 parent mAb; parent HER3 antibody

Assays:
[1] = molecular target: T1, human EGFR (His-Avi Tag, Kactus Biosystem, EGF-HM401) (human, UniProt P00533 25-645); assay: SPR, Biacore T200; ratio of affinities
T1 construct: Bought soluble protein used as SPR analyte; also called hEGFR; not shown: His-Avi tag

human EGFR on cells = molecular target: T2, human EGFR on cells (human, UniProt P00533 25-1210); assay: flow cytometry on EGFR-CT26 cells, PE anti-human IgG Fc
T2 construct: whole, on cells; the cell line is named under assay; also called EGFR-CT26; EGFR/CT26 (EGFR+++, HER3-)

human HER3 on cells = molecular target: T3, human HER3 on cells (human, UniProt P21860 20-1342); assay: flow cytometry on HER3-CT26 cells, PE anti-human IgG Fc
T3 construct: whole, on cells; Used as target for cells that carry HER3 alone (HER3-CT26) and for the anti-HER3 mAb on tumor lines that carry both receptors; the cell line is named under assay; also called HER3-CT26; HER3/CT26 (EGFR-, HER3+++)

[2] = molecular target: T4, monkey HER3 (rhesus HER3, C-His Tag, Kactus Biosystem, HER-CM403) (rhesus monkey, UniProt H9ERZ8 20-643); assay: SPR, Biacore T200; antibody captured on ProA chip, antigen as analyte; 1:1 Langmuir fit
T4 construct: Bought soluble protein used as SPR analyte; not shown: C-terminal His tag
T4 sequence (H9ERZ8 entry or part of it): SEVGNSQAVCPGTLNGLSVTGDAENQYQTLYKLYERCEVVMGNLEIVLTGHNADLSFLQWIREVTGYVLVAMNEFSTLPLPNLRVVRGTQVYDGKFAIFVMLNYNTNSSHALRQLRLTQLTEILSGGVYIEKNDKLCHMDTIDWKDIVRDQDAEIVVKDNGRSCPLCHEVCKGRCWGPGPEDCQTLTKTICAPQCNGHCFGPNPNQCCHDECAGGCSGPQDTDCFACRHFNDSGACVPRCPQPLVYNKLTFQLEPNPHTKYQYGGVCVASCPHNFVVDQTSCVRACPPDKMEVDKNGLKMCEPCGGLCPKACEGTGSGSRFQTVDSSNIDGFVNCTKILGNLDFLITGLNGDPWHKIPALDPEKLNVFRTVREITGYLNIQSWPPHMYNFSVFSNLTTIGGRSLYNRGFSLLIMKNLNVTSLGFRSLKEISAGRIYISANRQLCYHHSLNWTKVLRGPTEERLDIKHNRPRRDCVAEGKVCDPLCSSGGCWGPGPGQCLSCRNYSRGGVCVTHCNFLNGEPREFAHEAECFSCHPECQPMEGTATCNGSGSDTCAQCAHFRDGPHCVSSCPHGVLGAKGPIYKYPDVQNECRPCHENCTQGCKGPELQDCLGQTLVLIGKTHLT

[3] = molecular target: T1, human EGFR (His-Avi Tag, Kactus …); assay: as above
[4] = molecular target: T5, human HER3 (His-Avi Tag, Kactus Biosystem, HER-HM403) (human, UniProt P21860 20-643); assay: as above
T5 construct: Bought soluble protein used as SPR analyte; also called hHER3; not shown: His-Avi tag

[5] = molecular target: T6, monkey EGFR (rhesus EGFR, C-His Tag, Kactus Biosystem, EGF-CM101) (rhesus monkey, UniProt P55245 25-645, limits assumed); assay: as above
T6 construct: Bought soluble protein used as SPR analyte; not shown: C-terminal His tag

Row | Binder | fold weaker affinity than its affinity for HER3 [1] [fold] | fold weaker affinity than the parent EGFR antibody [1] [fold] | EC50 (human EGFR on cells) [nM] | EC50 (human HER3 on cells) [nM] | Kd [2] [nM] | koff [2] [s⁻¹] | kon [2] [M⁻¹ s⁻¹] | Kd [3] [nM] | koff [3] [s⁻¹] | kon [3] [M⁻¹ s⁻¹] | Kd [4] [nM] | koff [4] [s⁻¹] | kon [4] [M⁻¹ s⁻¹] | Kd [5] [nM] | koff [5] [s⁻¹] | kon [5] [M⁻¹ s⁻¹]
1 | B1 | ~16 | ~3 | 1.9 | 1.96 | 0.563 | 0.000157 | 278000 | 9.29 | 0.00055 | 59200 | 0.56 | 0.00018 | 322000 | 11.3 | 0.000534 | 47200
2 | B2 |  |  |  | 0.28 |  |  |  |  |  |  | 0.493 | 0.000379 | 768000 |  |  | 
